The values below come from PMC2666730, “HMGB1/2 can target DNA for illegitimate cleavage by the RAG1/2 complex”.

The target of data set [1] is T1, HMGB1 Tailless (UniProt P09429 1-163). Put plainly: EMSA. Particulars: EMSA as in ref 30; binding buffer, salt, pH and temperature not given in the material; scale: fold more protein needed than for bps6197.
Data set [2] addresses T2, HMGB1 full-length (UniProt P09429 1-215). The data set can be described thus: EMSA. Particulars: EMSA as in ref 30; binding buffer, salt, pH and temperature not given in the material; scale: fold more protein needed than for bps6197.
Data set [3] concerns the target T2, HMGB1 full-length. The data set can be described thus: EMSA; 0-320 ng HMGB1; EMSA as in ref 30; binding buffer, salt, pH and temperature not given in the material. Conditions: protein: recombinant; tags: N-terminal His6; label: 5' radiolabel, top strand; blunt. Background: A gel shift assay detects complexes by their altered migration in electrophoresis.
Data set [4] concerns the target cMR1 (core RAG1, MBP fusion);cMR2 (core RAG2, MBP fusion);HMGB1 full-length (;;, UniProt P15919;P21784;P09429 384-1040;1-387;1-215, ||). The data set can be described thus: EMSA; with HMGB1; similar to 23-RSS; EMSA as in ref 30; binding buffer, salt, pH and temperature not given in the material. Conditions: protein: recombinant;recombinant;recombinant; tags: N-terminal MBP;N-terminal MBP;N-terminal His6; chain copies: 2;1;1; label: 5' radiolabel, top strand; blunt.

Data set [5] addresses T1, HMGB1 Tailless. Put plainly: EMSA; 0-140 ng tailless HMGB1; EMSA as in ref 30; binding buffer, salt, pH and temperature not given in the material. Conditions: protein: recombinant; tags: N-terminal His6; label: 5' radiolabel, top strand; blunt.
In data set [6] the target is T3, cMR1 (core RAG1, MBP fusion);cMR2 (core RAG2, MBP fusion) (;, UniProt P15919;P21784 384-1040;1-387, |).
T3 sequence 1: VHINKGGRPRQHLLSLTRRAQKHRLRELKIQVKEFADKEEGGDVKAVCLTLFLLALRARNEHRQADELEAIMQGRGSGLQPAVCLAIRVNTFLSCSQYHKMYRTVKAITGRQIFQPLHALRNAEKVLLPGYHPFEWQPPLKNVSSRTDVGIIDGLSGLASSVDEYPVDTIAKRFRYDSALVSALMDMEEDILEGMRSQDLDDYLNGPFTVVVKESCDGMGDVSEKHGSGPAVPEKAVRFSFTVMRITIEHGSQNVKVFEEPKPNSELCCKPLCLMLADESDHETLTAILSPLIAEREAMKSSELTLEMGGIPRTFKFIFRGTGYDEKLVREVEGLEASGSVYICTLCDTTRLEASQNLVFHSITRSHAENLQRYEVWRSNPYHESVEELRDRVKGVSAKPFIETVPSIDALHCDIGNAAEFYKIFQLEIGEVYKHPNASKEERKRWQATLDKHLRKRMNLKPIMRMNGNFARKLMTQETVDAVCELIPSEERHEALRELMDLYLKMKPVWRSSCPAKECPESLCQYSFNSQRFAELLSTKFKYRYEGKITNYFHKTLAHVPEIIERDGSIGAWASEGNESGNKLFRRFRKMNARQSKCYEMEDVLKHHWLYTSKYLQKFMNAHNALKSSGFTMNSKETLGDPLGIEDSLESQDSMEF
T3 sequence 2: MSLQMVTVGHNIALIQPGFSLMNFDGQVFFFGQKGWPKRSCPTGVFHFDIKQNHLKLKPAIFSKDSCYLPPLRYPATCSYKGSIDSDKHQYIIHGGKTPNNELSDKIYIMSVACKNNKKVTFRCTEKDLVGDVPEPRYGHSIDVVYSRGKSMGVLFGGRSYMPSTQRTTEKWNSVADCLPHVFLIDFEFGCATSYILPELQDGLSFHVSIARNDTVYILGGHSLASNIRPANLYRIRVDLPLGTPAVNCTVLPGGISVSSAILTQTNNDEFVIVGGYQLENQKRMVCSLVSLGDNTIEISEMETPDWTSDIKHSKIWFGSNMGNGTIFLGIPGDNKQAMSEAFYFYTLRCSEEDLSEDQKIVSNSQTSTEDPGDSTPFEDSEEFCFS
The data set can be described thus: EMSA; without HMGB1; similar to 23-RSS, slightly more susceptible to cold 23-RSS; EMSA as in ref 30; binding buffer, salt, pH and temperature not given in the material. Conditions: protein: recombinant;recombinant; tags: N-terminal MBP;N-terminal MBP; chain copies: 2;1; label: 5' radiolabel, top strand; blunt.

T2 sequence (P09429 whole entry): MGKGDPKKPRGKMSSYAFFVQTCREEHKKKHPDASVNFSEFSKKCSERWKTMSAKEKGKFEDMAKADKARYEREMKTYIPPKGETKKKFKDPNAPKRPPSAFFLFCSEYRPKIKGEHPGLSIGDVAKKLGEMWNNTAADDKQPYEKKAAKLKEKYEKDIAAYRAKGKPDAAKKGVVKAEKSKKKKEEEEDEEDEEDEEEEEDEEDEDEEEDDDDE
T1 sequence (P09429 1-163): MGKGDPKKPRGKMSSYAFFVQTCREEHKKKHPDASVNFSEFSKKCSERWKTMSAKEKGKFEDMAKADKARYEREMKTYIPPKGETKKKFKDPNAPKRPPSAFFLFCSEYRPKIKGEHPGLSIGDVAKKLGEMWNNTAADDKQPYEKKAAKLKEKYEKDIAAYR
Chain of cMR1 (core RAG1, MBP fusion);cMR2 (core RAG2, MBP fusion);HMGB1 full-length (P09429 whole entry, the tested form may be a part, one chain of several): as the sequence (P09429 whole entry) above

Take 23-RSS (consensus): the binding signal with HMGB1 Tailless [1] and with HMGB1 full-length [2] was 1.5 each time.

B1: bps6197 (dsDNA)
DNA 1: TCCCCGAAAAGTGCCACCTGACGTCTAAGAAACCATTATTATCATGACATTAACCTATAAA
DNA 2: TTTATAGGTTAATGTCATGATAATAATGGTTTCTTAGACGTCAGGTGGCACTTTTCGGGGA
As to B1, the binding signal with HMGB1 full-length [3] and in the data set with HMGB1 Tailless [5] was ~1.5 fold less protein needed than for 23-RSS in each case. The binding result in data set [4] and in data set [6] was “binds” throughout.
